We go through 2 molecules from publication PMC5367257 (RNA Biology, 2017).

For data set [1], the target named is His-PABP-Flag (wild-type full-length human poly(A)-binding protein) (human, UniProt P11940 1-636). Kind of data set: pull-down.
A further data set concerns the target WT PABP (human, UniProt P11940 1-636). Kind of data set: EMSA. For orientation: Mobility shift assays separate free from complexed probe on a gel.
The target of a further data set is PABP 2-3 mt (human, UniProt P11940 1-175+=[…]+190-636, internal_change). Kind of data set: EMSA.

B1: His-eIF4G-N (truncated human eIF4GI, amino acids 42–653, with the PABP- and eIF4E-binding sites) (domain or fragment)
chain: NTPSQPRQHFYPSRAQPPSSAASRVQSAAPARPGPAAHVYPAGSQVMMIPSQISYPASQGAYYIPGQGRSTYVVPTQQYPVQPGAPGFYPGASPTEFGTYAGAYYPAQGVQQFPTGVAPTPVLMNQPPQIAPKRERKTIRIRDPNQGGKDITEEIMSGARTASTPTPPQTGGGLEPQANGETPQVAVIVRPDDRSQGAIIADRPGLPGPEHSPSESQPSSPSPTPSPSPVLEPGSEPNLAVLSIPGDTMTTIQMSVEESTPISRETGEPYRLSPEPTPLAEPILEVEVTLSKPVPESEFSSSPLQAPTPLASHTVEIHEPNGMVPSEDLEPEVESSPELAPPPACPSESPVPIAPTAQPEELLNGAPSPPAVDLSPVSEPEEQAKEVTASMAPPTIPSATPATAPSATSPAQEEEMEEEEEEEEGEAGEAGEAESEKGGEELLPPESTPIPANLSQNLEAAAATQVAVSVPKRRRKIKELNKKEAVGDLLDAFKEANPAVPEVENQPPAGSNPGPESEGSGVPPRPEEADETWDSKEDKIHNAENIQPGEQKYEYKSDQWKPLNLEEKKRYDREFLLGFQFIFASMQKPEGLPHISDVVLDKANKTPLRPLD
On to B1, for which the “fold increase of binding with eIF4E against without eIF4E” value in data set [1] is around 3 fold.
In the case of AAAAAAAAAAAAAAAAAAAAAAAAA (ssRNA) [poly(A)25 RNA], the dissociation constant (Kd) in the data set with WT PABP was around 5.9 nM; with PABP 2-3 mt, around 6.9 nM.

As a reminder, the Kd is the constant that tells how readily two partners part at equilibrium.
